{
  "source": "patent US20090081707A1",
  "about": "(published 2009)",
  "key": {"[1]": {"target": "trkC variant s5a immunoadhesin (trkC Val297 to Thr420 replaced with trkA Ser277 to Val402) (human)", "sequence (chain, as listed by the source mutant)": "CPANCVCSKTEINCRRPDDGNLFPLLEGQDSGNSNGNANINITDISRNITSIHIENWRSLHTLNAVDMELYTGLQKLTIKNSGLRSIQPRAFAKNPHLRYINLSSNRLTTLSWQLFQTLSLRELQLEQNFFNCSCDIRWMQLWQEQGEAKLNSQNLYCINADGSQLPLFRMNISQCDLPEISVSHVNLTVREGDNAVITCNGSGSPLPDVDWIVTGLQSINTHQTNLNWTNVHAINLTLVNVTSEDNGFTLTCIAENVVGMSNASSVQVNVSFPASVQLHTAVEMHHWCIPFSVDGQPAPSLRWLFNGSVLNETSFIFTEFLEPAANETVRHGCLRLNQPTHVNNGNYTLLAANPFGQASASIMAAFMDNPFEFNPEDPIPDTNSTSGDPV", "test": "saturation binding with 125I-NGF on immunoadhesin"}, "[2]": {"target": "trkC variant s5a immunoadhesin (trkC Val297 to Thr420 replaced with trkA Ser277 to Val402) (human)", "test": "competitive displacement of labelled NGF on immunoadhesin"}, "[3]": {"target": "T1, trkC-IgG immunoadhesin (chimera of human trkC extracellular domain with human IgG-1 Fc) (human, UniProt Q16288 32-413)", "T1 construct": "also called trkC wild-type; trkC full length receptor (as immunoadhesin); not shown: human IgG-1 heavy chain constant region from aspartic acid 216 of the hinge to residue 441 (Kabat numbering, 114 = first)", "test": "competitive displacement of labelled BDNF on immunoadhesin"}, "[4]": {"target": "T2, trkB-IgG immunoadhesin (chimera of human trkB extracellular domain with human IgG-1 Fc) (human, UniProt Q16620 32-422)", "T2 construct": "also called trkB full length receptor (as immunoadhesin); not shown: human IgG-1 heavy chain constant region from aspartic acid 216 of the hinge to residue 441 (Kabat numbering, 114 = first)", "T2 sequence (Q16620 32-422 limits assumed, change not shown)": "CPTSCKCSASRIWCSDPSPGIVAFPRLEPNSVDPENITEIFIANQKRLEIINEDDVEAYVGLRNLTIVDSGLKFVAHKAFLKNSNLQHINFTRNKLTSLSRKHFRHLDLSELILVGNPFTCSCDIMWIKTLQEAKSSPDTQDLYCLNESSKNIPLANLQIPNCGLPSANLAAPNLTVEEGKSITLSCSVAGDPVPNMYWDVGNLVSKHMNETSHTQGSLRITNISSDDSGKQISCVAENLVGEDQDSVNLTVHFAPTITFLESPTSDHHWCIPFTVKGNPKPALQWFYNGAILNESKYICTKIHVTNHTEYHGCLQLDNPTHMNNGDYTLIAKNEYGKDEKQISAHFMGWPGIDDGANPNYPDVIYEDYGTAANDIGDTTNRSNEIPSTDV", "test": "competitive displacement of labelled BDNF from trkB-IgG by unlabelled BDNF"}, "[5]": {"target": "T3, trkA-IgG immunoadhesin (chimera of human trkA extracellular domain with human IgG-1 Fc) (human, UniProt P04629 33-408)", "T3 construct": "also called trkA-IgG chimera; native trkA; not shown: human IgG-1 heavy chain constant region from aspartic acid 216 of the hinge to residue 441 (Kabat numbering, 114 = first)", "T3 sequence (P04629 other isoform, or with tags, fused parts or gaps mutant limits assumed)": "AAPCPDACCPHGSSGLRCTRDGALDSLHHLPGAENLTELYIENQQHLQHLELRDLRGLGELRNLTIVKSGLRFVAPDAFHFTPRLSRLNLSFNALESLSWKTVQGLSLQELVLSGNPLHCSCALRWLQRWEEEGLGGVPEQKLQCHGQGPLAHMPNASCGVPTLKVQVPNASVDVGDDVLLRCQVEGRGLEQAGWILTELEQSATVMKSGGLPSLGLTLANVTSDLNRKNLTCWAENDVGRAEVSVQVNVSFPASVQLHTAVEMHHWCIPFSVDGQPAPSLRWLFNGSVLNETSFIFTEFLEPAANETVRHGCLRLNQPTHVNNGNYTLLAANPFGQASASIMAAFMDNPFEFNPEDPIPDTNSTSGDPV", "test": "competitive displacement of iodinated neurotrophin from trk-IgG"}, "[6]": {"target": "T2, trkB-IgG immunoadhesin (chimera of …)", "test": "competitive displacement of labelled BDNF from trkB-IgG by unlabelled NT4/5"}, "[7]": {"target": "T2, trkB-IgG immunoadhesin (chimera of …)", "test": "competitive displacement of labelled BDNF from trkB-IgG by unlabelled NT3"}},
  "data": [
    {"molecule": "nerve growth factor (NGF) (from UniProt P01138 122-241) (ligand)", "values": [
      {"measurement": "Kd", "setting": "[1]", "value": 0.0386, "unit": "nM"},
      {"measurement": "IC50", "setting": "[2]", "value": 0.0393, "unit": "nM"}
    ]},
    {"molecule": "brain-derived neurotrophic factor (BDNF) (ligand, also called NT-2) HSDPARRGELSVCDSISEWVTAADKKTAVDMSGGTVTVLEKVPVSKGQLKQYFYETKCNPMGYTKEGCRGIDKRHWNSQCRTTQSYVRALTMDSKKRIGWRFIRIDTSCVCTLTIKRGR", "values": [
      {"measurement": "binding result", "setting": "[3]", "value": "no binding"},
      {"measurement": "IC50", "setting": "[4]", "value": 0.081, "unit": "nM"}
    ]},
    {"molecule": "neurotrophin-4/5 (NT-4/5) (ligand, also called NT5) GVSETAPASRRGELAVCDAVSGWVTDRRTAVDLRGREVEVLGEVPAAGGSPLRQYFFETRCKADNAEEGGPGAGGGGCRGVDRRHWVSECKAKQSYVRALTADAQGRVGWRWIRIDTACVCTLLSRTGRA", "values": [
      {"measurement": "binding result", "setting": "[5]", "value": "binds"},
      {"measurement": "IC50", "setting": "[6]", "value": 0.2, "unit": "nM"}
    ]},
    {"molecule": "neurotrophin-3 (NT-3) (ligand) YAEHKSHRGEYSVCDSESLWVTDKSSAIDIRGHQVTVLGEIKTGNSPVKQYFYETRCKEARPVKNGCRGIDDKHWNSQCKTSQTYVRALTSENNKLVGWRWIRIDTSCVCALSRKIGRT", "values": [
      {"measurement": "IC50", "setting": "[7]", "value": 18, "unit": "nM"}
    ]}
  ]
}
